Our source for the percent coimmunoprecipitated and percent coprecipitated values is article PMC2171414.

What all share (assay): co-IP
For experiment [1], the target named is Caf4p-HTM (S. cerevisiae) (UniProt P36130).
Experiment [2] addresses Mdv1p-HTM (S. cerevisiae) (UniProt P47025).
The target of experiment [3] is M3TH-Fis1p (3XMyc/TEV/His8-Fis1p) (S. cerevisiae) (UniProt P40515).
Chain of UniProt P40515 (P40515 whole entry): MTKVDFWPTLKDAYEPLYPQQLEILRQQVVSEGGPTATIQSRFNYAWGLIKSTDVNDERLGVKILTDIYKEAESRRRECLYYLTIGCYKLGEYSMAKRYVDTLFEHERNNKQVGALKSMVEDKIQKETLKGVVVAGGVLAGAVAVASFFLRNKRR

“Caf4p-N-HA (residues 1–274) (from UniProt P36130 1-274) (domain or fragment)”: the percent coimmunoprecipitated in experiment [1] worked out at 5%. The molecule further gave a percent coprecipitated in experiment [2] of 1%. “Caf4p-HA (Caf4p wt, residues 1–659) (from UniProt P36130 1-643) (natural protein)”: the percent coprecipitated in experiment [3] stood at 5%; in experiment [2] it was 1%. In experiment [1], the percent coimmunoprecipitated amounted to 5%.

B1: Mdv1p-N-HA (residues 1–300) (domain or fragment)
chain: MSVNDQITHIGKTLSTTASAFLNYQKSNSNTQDVLTNNGPYKNLLSNTVNNASSTSYFYKRTEHGRFVKNASNTFEDIYSKTRRGDVFRNKFTDNKTCFRMLTYISDDLLNEIPTKEGLKSDADGKLLTEGGENENLRKNASKKETSLFQGFKSYLPIAELAIENTERLNYDTNGTSGTVGAKDVMSKTNERDEIHTELPNFQDSFLIPPGVETKKISSSYSPSALKSFSQTLVNSLEFLNIQKNSTLSEIRDIEVEVENLRQKKEKLLGKIANIEQNQLLLEDNLKQIDDRLDFLEEYG
Regarding B1, the percent coprecipitated in experiment [1] was determined as 1%.

B2: Mdv1p-HA (Mdv1 wt, residues 1–714) (natural protein)
chain: MSVNDQITHIGKTLSTTASAFLNYQKSNSNTQDVLTNNGPYKNLLSNTVNNASSTSYFYKRTEHGRFVKNASNTFEDIYSKTRRGDVFRNKFTDNKTCFRMLTYISDDLLNEIPTKEGLKSDADGKLLTEGGENENLRKNASKKETSLFQGFKSYLPIAELAIENTERLNYDTNGTSGTVGAKDVMSKTNERDEIHTELPNFQDSFLIPPGVETKKISSSYSPSALKSFSQTLVNSLEFLNIQKNSTLSEIRDIEVEVENLRQKKEKLLGKIANIEQNQLLLEDNLKQIDDRLDFLEEYGLEVIEANSDENAEDDGMSERKALKNDAIRNEGVTTESISSEASNLPPRRRQQLRDDNSLNRLGAFYSKSKKRHRKSFPTFQQLYEPGTKIGSIMSTHDDFLTCLDFDAPFGTLCTAGYLDHTVKIWDLSKQNKIGELAGHLATINCMQINRDYGTLVTGGRDAALKLWNLNLAQQLYQETQNLTSPTNHIDSPCVHTFEAHTDEVTALSLDPSFLVSGSQDRTIRQWDLRSGKCLQTIDLSFANVLTTSTNVDLSKSTLLTQRNERPSIGALQSFDAALATGTKDGVVRLWDLRSGKVIRTLKGHTDAITSLKFDSACLVTGSYDRTVRIWDLRTGLLNKFHAYSAPVLSLDLFQENAAVVVADEPSVQIYDSEKDESWSCVEQGNETSVSTVKYKENYMVEGRENGDVNIWAV
In turn, B2 showed a percent coprecipitated in experiment [1] of 1%.
